# Assay results reported in patent publication US20130251724A1 (GlaxoSmithKline, published 2013).
# T1: Human OSM (human, UniProt P13725 26-221)
# T1 construct: Recombinant human OSM; also called hOSM; human Oncostatin M
# T1 sequence: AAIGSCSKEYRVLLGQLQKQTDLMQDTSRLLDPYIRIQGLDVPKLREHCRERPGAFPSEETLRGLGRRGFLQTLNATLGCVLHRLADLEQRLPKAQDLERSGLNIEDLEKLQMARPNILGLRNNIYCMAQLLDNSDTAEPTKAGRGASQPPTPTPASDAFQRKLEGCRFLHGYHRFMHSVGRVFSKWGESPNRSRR
# T2: Cynomolgus OSM (cynomolgus, UniProt A0A2K5VPC6 26-221)
# T2 construct: also called Cyno OSM; cynomolgus macaque OSM
# T2 sequence: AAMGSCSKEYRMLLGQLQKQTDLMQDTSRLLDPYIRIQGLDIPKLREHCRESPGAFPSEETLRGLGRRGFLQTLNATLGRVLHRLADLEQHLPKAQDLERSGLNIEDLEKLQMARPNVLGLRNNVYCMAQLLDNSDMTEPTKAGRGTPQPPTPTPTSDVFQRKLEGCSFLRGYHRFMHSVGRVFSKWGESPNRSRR
# What was measured:
# [1] = biological target: T1, Human OSM; assay: SPR (ProteOn XPR36 or Biacore T100), captured supernatant, OSM as analyte [continued]
# Method: (§1) The initial kinetic analyses for the CDRH3 screen were carried out on the ProteOn XPR36 (Biorad Laboratories) and certain supernatants were selected for more accurate kinetic analysis on the BiaCore T100.
# (§2) For the ProteOn analysis, anti-human IgG (GE Healthcare/Biacore BR-1008-39) was coupled to a GLM chip (Biorad Laboratories 176-5012) by primary amine coupling. The CDRH3 variants were captured directly on to this surface and recombinant human OSM was passed over the captured antibody surface at 256, 64, 16, 4 and 1 nM, with a buffer injection alone (i.e. 0 nM) used to double reference the binding curves. Following the OSM binding event, the capture surfaces were regenerated: with 3M MgCl₂ the regeneration removed the previously captured antibody ready for another cycle of capture and binding analysis. The data was then fitted to the 1:1 model (with mass transport) inherent to the ProteOn analysis software. The run was carried out using HBS-EP (Biacore/GE-Healthcare BR-1006-69) and the analysis temperature was 25° C.
# (§3) A similar method was used for analysis of constructs using the Biacore T100, anti-human IgG (GE Healthcare/Biacore BR-1008-39) was coupled to a CM5 chip (GE Healthcare/Biacore BR-1006-68) by primary amine coupling, antibodies were captured on this surface and recombinant human OSM was passed over the captured antibody surface at 256, 64, 16, 4 and 1 nM, with a buffer injection alone (i.e. 0 nM) used to double reference the binding curves. Regeneration was by using pulses of 3M 3M MgCl₂ or 100 mM phosphoric acid or using both reagents. The data was fitted to the 1:1 model inherent to the Biacore T100 analysis software. The run was carried out using HBS-EP (Biacore/GE-Healthcare BR-1006-69) and the analysis temperature was 25° C.
# [2] = biological target: T1, Human OSM; assay: BIAcore kinetics, transfection supernatant
# [3] = biological target: T2, Cynomolgus OSM; assay: BIAcore kinetics, transfection supernatant
# [4] = biological target: T1, Human OSM; assay: SPR (ProteOn XPR36 or Biacore T100), captured supernatant, OSM as analyte
# Method: as §1, §2, §3
binder,measurement,setting,value
"Pos 95 Thr (antibody, V domains shown, also called CDRH3 D95>T) VH: EVQLVESGGGLVQPGGSLRLSCAASGFTFSSYAMSWVRQAPGKGLEWVATISDGGSFTYYLDNVRGRFTISRDNAKNSLYLQMNSLRAEDTAVYYCARTVGHTTFWYFDVWGRGTLVTVSS VL: DIVMTQSPDSLAVSLGERATINCRASKSVSAAGYNFMHWYQQKPGQPPKVLIYYASNLESGVPDRFSGSGSGTDFTLTISSLQAEDVAVYYCLHSREFPFTFGGGTKVEIKR",Kd,[1],0.632 nM
"Humanised 10G8 H0 IGHV3_7 + L1 (antibody, V domains shown, built from the statement that the germline CDRH1 was exchanged for the mouse CDRH1 in H0; Human gamma 1/kappa constant regions) VH: EVQLVESGGGLVQPGGSLRLSCAASGFTFSSYWMSWVRQAPGKGLEWVATISDGGSFTYYLDNVRGRFTISRDNAKNSLYLQMNSLRAEDTAVYYCARDVGHTTFWYFDVWGRGTLVTVSS VL: DIVMTQSPDSLAVSLGERATINCRASKSVSAAGYNFMHWYQQKPGQPPKVLIYYASNLESGVPDRFSGSGSGTDFTLTISSLQAEDVAVYYCLHSREFPFTFGGGTKVEIK",Kd,[2],10.6 nM
same,koff,[2],0.000967 s⁻¹
same,kon,[2],91000 M⁻¹ s⁻¹
same,Kd,[3],24.2 nM
same,koff,[3],0.815 s⁻¹
same,kon,[3],3.37e+07 M⁻¹ s⁻¹
"Pos 102 Gly (antibody, V domains shown, also called CDRH3 V102>G) VH: EVQLVESGGGLVQPGGSLRLSCAASGFTFSSYAMSWVRQAPGKGLEWVATISDGGSFTYYLDNVRGRFTISRDNAKNSLYLQMNSLRAEDTAVYYCARDVGHTTFWYFDGWGRGTLVTVSS VL: DIVMTQSPDSLAVSLGERATINCRASKSVSAAGYNFMHWYQQKPGQPPKVLIYYASNLESGVPDRFSGSGSGTDFTLTISSLQAEDVAVYYCLHSREFPFTFGGGTKVEIKR",Kd,[4],0.406 nM
"Humanised 10G8 H0 IGHV3_23 + L1 IGKV1_5 (antibody, V domains shown, built from the stated exchange of CDRL2; residue limits derived by me) VH: EVQLVESGGGLVQPGGSLRLSCAASGFTFSSYAMSWVRQAPGKGLEWVATISDGGSFTYYLDNVRGRFTISRDNAKNSLYLQMNSLRAEDTAVYYCARDVGHTTFWYFDVWGRGTLVTVSS VL: DIVMTQSPDSLAVSLGERATINCRASKSVSAAGYNFMHWYQQKPGQPPKVLIYKASSLESGVPDRFSGSGSGTDFTLTISSLQAEDVAVYYCLHSREFPFTFGGGTKVEIK",Kd,[2],9.27 nM
same,koff,[2],0.00066 s⁻¹
same,kon,[2],71100 M⁻¹ s⁻¹
same,Kd,[3],8.89 nM
same,koff,[3],0.000593 s⁻¹
same,kon,[3],66700 M⁻¹ s⁻¹
"Pos 102 Ala (antibody, V domains shown, also called CDRH3 V102>A) VH: EVQLVESGGGLVQPGGSLRLSCAASGFTFSSYAMSWVRQAPGKGLEWVATISDGGSFTYYLDNVRGRFTISRDNAKNSLYLQMNSLRAEDTAVYYCARDVGHTTFWYFDAWGRGTLVTVSS VL: DIVMTQSPDSLAVSLGERATINCRASKSVSAAGYNFMHWYQQKPGQPPKVLIYYASNLESGVPDRFSGSGSGTDFTLTISSLQAEDVAVYYCLHSREFPFTFGGGTKVEIKR",Kd,[4],0.338 nM
"Pos 102 Leu (antibody, V domains shown, also called CDRH3 V102>L) VH: EVQLVESGGGLVQPGGSLRLSCAASGFTFSSYAMSWVRQAPGKGLEWVATISDGGSFTYYLDNVRGRFTISRDNAKNSLYLQMNSLRAEDTAVYYCARDVGHTTFWYFDLWGRGTLVTVSS VL: DIVMTQSPDSLAVSLGERATINCRASKSVSAAGYNFMHWYQQKPGQPPKVLIYYASNLESGVPDRFSGSGSGTDFTLTISSLQAEDVAVYYCLHSREFPFTFGGGTKVEIKR",Kd,[4],0.426 nM
"Pos 101 Glu (antibody, V domains shown, also called CDRH3 D101>E) VH: EVQLVESGGGLVQPGGSLRLSCAASGFTFSSYAMSWVRQAPGKGLEWVATISDGGSFTYYLDNVRGRFTISRDNAKNSLYLQMNSLRAEDTAVYYCARDVGHTTFWYFEVWGRGTLVTVSS VL: DIVMTQSPDSLAVSLGERATINCRASKSVSAAGYNFMHWYQQKPGQPPKVLIYYASNLESGVPDRFSGSGSGTDFTLTISSLQAEDVAVYYCLHSREFPFTFGGGTKVEIKR",Kd,[4],0.426 nM
"Pos 100D Asp (antibody, V domains shown, also called CDRH3 F100D>D) VH: EVQLVESGGGLVQPGGSLRLSCAASGFTFSSYAMSWVRQAPGKGLEWVATISDGGSFTYYLDNVRGRFTISRDNAKNSLYLQMNSLRAEDTAVYYCARDVGHTTFWYDDVWGRGTLVTVSS VL: DIVMTQSPDSLAVSLGERATINCRASKSVSAAGYNFMHWYQQKPGQPPKVLIYYASNLESGVPDRFSGSGSGTDFTLTISSLQAEDVAVYYCLHSREFPFTFGGGTKVEIKR",Kd,[4],0.672 nM
"Pos 102 Phe (antibody, V domains shown, also called CDRH3 V102>F) VH: EVQLVESGGGLVQPGGSLRLSCAASGFTFSSYAMSWVRQAPGKGLEWVATISDGGSFTYYLDNVRGRFTISRDNAKNSLYLQMNSLRAEDTAVYYCARDVGHTTFWYFDFWGRGTLVTVSS VL: DIVMTQSPDSLAVSLGERATINCRASKSVSAAGYNFMHWYQQKPGQPPKVLIYYASNLESGVPDRFSGSGSGTDFTLTISSLQAEDVAVYYCLHSREFPFTFGGGTKVEIKR",Kd,[4],0.425 nM
"Humanised 10G8 H0 IGHV3_7 + L1 IGKV4_1 (antibody, V domains shown, built from the stated CDR exchanges; residue limits derived by me) VH: EVQLVESGGGLVQPGGSLRLSCAASGFTFSSYWMSWVRQAPGKGLEWVATISDGGSFTYYLDNVRGRFTISRDNAKNSLYLQMNSLRAEDTAVYYCARDVGHTTFWYFDVWGRGTLVTVSS VL: DIVMTQSPDSLAVSLGERATINCRASKSVSAAGYNFMHWYQQKPGQPPKVLIYWASTRESGVPDRFSGSGSGTDFTLTISSLQAEDVAVYYCLHSREFPFTFGGGTKVEIK",Kd,[2],44.4 nM
same,koff,[2],0.00163 s⁻¹
same,kon,[2],36800 M⁻¹ s⁻¹
same,Kd,[3],34.9 nM
same,koff,[3],0.00177 s⁻¹
same,kon,[3],50700 M⁻¹ s⁻¹
"Pos 102 Pro (antibody, V domains shown, also called CDRH3 V102>P) VH: EVQLVESGGGLVQPGGSLRLSCAASGFTFSSYAMSWVRQAPGKGLEWVATISDGGSFTYYLDNVRGRFTISRDNAKNSLYLQMNSLRAEDTAVYYCARDVGHTTFWYFDPWGRGTLVTVSS VL: DIVMTQSPDSLAVSLGERATINCRASKSVSAAGYNFMHWYQQKPGQPPKVLIYYASNLESGVPDRFSGSGSGTDFTLTISSLQAEDVAVYYCLHSREFPFTFGGGTKVEIKR",Kd,[4],0.411 nM
"Pos 102 Gln (antibody, V domains shown, also called CDRH3 V102>Q) VH: EVQLVESGGGLVQPGGSLRLSCAASGFTFSSYAMSWVRQAPGKGLEWVATISDGGSFTYYLDNVRGRFTISRDNAKNSLYLQMNSLRAEDTAVYYCARDVGHTTFWYFDQWGRGTLVTVSS VL: DIVMTQSPDSLAVSLGERATINCRASKSVSAAGYNFMHWYQQKPGQPPKVLIYYASNLESGVPDRFSGSGSGTDFTLTISSLQAEDVAVYYCLHSREFPFTFGGGTKVEIKR",Kd,[4],0.337 nM
"Humanised 10G8 H0 + L1 IGKV1_5 (antibody, V domains shown, built from the stated exchange of CDRL2; residue limits derived by me; Human gamma 1/kappa constant regions) VH: EVQLVESGGGLVQPGGSLRLSCAASGFTFSNYAMSWVRQAPGKGLEWVATISDGGSFTYYLDNVRGRFTISRDNAKNSLYLQMNSLRAEDTAVYYCARDVGHTTFWYFDVWGRGTLVTVSS VL: DIVMTQSPDSLAVSLGERATINCRASKSVSAAGYNFMHWYQQKPGQPPKVLIYKASSLESGVPDRFSGSGSGTDFTLTISSLQAEDVAVYYCLHSREFPFTFGGGTKVEIK",Kd,[2],9.33 nM
same,koff,[2],0.00064 s⁻¹
same,kon,[2],68700 M⁻¹ s⁻¹
same,Kd,[3],8.26 nM
same,koff,[3],0.000557 s⁻¹
same,kon,[3],67500 M⁻¹ s⁻¹
"Pos 101 Gly (antibody, V domains shown, also called CDRH3 D101>G) VH: EVQLVESGGGLVQPGGSLRLSCAASGFTFSSYAMSWVRQAPGKGLEWVATISDGGSFTYYLDNVRGRFTISRDNAKNSLYLQMNSLRAEDTAVYYCARDVGHTTFWYFGVWGRGTLVTVSS VL: DIVMTQSPDSLAVSLGERATINCRASKSVSAAGYNFMHWYQQKPGQPPKVLIYYASNLESGVPDRFSGSGSGTDFTLTISSLQAEDVAVYYCLHSREFPFTFGGGTKVEIKR",Kd,[4],0.71 nM
"Pos 100D Glu (antibody, V domains shown, also called CDRH3 F100D>E) VH: EVQLVESGGGLVQPGGSLRLSCAASGFTFSSYAMSWVRQAPGKGLEWVATISDGGSFTYYLDNVRGRFTISRDNAKNSLYLQMNSLRAEDTAVYYCARDVGHTTFWYEDVWGRGTLVTVSS VL: DIVMTQSPDSLAVSLGERATINCRASKSVSAAGYNFMHWYQQKPGQPPKVLIYYASNLESGVPDRFSGSGSGTDFTLTISSLQAEDVAVYYCLHSREFPFTFGGGTKVEIKR",Kd,[4],0.688 nM
"Pos 100D Gly (antibody, V domains shown, also called CDRH3 F100D>G) VH: EVQLVESGGGLVQPGGSLRLSCAASGFTFSSYAMSWVRQAPGKGLEWVATISDGGSFTYYLDNVRGRFTISRDNAKNSLYLQMNSLRAEDTAVYYCARDVGHTTFWYGDVWGRGTLVTVSS VL: DIVMTQSPDSLAVSLGERATINCRASKSVSAAGYNFMHWYQQKPGQPPKVLIYYASNLESGVPDRFSGSGSGTDFTLTISSLQAEDVAVYYCLHSREFPFTFGGGTKVEIKR",Kd,[4],0.661 nM
